Drawing on PMC6864843 (2019), this text covers absorbance, Kd and koff for three molecules.

As usually defined, the Kd is the equilibrium constant for the complex coming apart. For orientation: koff means the first-order rate constant of dissociation.

Assay [1] has as its target Recombinant AAV2 particles (Adeno-Associated Virus serotype 2 capsid) (Adeno-associated virus 2). The assay can be described thus: ELISA; sandwich 'VIRELISA': 10 μg AAVR-His coated per well, AAV2 sample (1.0 × 10^8 v.g. in Table 1) 1 h at RT, blocked with BSA, AAVR-SBP-His probe 1 h in PBST, HRP-streptavidin, ABTS, read at 450 nm; probe concentration, SAV-HRP dilution and ABTS time varied in Table 1. A general note: In an ELISA, binding on a coated surface is turned into a signal by an enzyme label.

For assay [2], the target named is Recombinant AAV1 particles (Adeno-Associated Virus serotype 1 capsid) (Adeno-associated virus 1) (UniProt Q9WBP8). The assay can be described thus: SPR; BIAcore T200; AAV1 particles immobilised on a CM5 chip by amide coupling (in sodium acetate pH 4.5); AAVR flowed at different concentrations, 30 μL/min, 25 °C, 100 mM NaCl in 10 mM HEPES pH 7.4.
Assay [3] deals with T1, Recombinant AAV1 particles (Adeno-Associated Virus serotype 1 capsid) (Adeno-associated virus 1, UniProt Q9WBP8 1-736).
T1 chain 1: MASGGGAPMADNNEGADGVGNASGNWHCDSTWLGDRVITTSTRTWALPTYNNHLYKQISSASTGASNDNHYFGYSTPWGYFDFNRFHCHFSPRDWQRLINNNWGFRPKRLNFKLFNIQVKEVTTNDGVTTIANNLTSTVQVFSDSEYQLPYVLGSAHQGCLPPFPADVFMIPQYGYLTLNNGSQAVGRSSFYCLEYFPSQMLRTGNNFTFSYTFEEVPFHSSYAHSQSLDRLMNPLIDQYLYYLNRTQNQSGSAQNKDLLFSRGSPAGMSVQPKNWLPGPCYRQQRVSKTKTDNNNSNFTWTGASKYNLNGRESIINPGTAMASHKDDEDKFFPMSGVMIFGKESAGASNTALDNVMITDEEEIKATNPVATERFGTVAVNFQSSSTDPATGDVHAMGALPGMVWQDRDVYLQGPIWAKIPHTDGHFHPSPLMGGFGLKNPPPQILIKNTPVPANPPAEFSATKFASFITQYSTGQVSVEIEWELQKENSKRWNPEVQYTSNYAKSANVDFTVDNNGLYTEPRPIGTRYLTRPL
T1 chain 2: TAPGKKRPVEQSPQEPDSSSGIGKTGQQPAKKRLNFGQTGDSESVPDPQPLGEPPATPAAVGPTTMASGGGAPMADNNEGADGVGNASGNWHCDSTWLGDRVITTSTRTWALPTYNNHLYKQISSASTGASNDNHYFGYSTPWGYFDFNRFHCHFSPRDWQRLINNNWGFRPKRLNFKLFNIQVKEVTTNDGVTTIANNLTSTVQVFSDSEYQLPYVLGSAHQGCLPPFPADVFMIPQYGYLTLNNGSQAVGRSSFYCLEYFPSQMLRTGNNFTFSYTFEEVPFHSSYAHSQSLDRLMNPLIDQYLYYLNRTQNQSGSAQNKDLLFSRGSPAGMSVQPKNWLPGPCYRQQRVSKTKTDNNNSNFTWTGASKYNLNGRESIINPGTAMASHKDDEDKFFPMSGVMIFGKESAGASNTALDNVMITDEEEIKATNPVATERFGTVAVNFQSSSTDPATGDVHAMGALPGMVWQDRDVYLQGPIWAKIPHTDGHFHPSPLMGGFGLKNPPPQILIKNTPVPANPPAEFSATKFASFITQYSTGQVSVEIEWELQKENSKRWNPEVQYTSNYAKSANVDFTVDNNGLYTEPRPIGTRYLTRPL
T1 chain 3: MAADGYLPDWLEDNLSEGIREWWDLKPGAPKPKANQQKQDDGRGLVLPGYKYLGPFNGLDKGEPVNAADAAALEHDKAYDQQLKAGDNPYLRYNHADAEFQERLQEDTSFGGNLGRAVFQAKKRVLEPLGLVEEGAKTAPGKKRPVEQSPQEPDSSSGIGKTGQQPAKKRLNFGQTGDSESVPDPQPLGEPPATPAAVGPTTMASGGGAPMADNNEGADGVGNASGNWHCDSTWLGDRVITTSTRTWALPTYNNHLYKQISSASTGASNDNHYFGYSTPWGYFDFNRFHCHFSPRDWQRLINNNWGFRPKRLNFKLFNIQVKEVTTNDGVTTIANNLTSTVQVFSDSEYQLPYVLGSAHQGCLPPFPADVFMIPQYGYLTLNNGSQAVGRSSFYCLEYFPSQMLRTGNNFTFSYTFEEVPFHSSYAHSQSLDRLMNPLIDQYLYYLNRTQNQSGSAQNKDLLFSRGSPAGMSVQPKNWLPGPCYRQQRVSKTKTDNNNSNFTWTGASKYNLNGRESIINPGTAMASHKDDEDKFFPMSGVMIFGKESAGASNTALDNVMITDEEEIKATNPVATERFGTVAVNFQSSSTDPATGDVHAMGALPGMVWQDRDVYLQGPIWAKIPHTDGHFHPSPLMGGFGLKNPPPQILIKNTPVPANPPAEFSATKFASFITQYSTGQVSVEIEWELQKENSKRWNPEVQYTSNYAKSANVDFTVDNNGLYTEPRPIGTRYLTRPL
The assay can be described thus: SPR. For orientation: SPR reads the build-up and loss of mass on a sensor chip optically.

Recombinant AAV2 particles (Adeno-Associated Virus serotype 2 capsid) (Adeno-associated virus 2), sequence (O56652 whole entry, chain 1 of 3): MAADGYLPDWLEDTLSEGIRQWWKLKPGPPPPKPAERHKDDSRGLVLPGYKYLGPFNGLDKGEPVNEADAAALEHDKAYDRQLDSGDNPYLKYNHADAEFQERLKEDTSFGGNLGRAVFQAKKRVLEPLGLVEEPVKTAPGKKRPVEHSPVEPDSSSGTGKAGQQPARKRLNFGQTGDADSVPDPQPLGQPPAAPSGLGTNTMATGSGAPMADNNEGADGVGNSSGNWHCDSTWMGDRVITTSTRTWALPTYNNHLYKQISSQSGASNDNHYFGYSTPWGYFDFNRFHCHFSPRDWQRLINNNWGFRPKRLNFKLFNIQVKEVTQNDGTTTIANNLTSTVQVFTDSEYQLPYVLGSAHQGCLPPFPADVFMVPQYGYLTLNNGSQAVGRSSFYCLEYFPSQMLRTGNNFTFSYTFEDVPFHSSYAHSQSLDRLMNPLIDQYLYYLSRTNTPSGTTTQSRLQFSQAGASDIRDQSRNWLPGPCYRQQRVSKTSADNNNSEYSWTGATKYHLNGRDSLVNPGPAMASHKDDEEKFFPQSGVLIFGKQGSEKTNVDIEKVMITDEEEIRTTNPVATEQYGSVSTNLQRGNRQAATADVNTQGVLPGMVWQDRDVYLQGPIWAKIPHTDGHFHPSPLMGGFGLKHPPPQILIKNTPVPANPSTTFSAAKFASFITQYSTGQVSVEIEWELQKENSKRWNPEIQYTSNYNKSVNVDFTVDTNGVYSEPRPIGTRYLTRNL
Recombinant AAV2 particles (Adeno-Associated Virus serotype 2 capsid) (Adeno-associated virus 2), sequence (P03135 139-735, tags left off, chain 2 of 3, further chain): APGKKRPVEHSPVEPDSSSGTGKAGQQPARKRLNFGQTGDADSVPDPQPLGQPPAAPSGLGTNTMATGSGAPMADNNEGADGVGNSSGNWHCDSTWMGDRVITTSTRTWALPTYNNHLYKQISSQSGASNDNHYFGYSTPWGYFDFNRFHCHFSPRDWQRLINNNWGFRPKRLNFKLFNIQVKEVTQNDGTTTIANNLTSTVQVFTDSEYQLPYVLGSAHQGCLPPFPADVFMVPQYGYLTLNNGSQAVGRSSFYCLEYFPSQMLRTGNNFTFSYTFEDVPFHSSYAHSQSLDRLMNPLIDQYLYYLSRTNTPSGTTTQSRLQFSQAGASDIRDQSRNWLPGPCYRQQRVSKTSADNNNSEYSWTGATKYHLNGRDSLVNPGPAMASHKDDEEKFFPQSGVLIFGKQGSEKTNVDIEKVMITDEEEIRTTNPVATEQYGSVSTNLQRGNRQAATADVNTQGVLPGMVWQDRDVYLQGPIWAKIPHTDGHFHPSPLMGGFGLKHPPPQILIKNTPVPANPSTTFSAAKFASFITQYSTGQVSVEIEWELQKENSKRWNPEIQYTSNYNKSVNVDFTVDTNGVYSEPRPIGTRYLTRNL
Recombinant AAV2 particles (Adeno-Associated Virus serotype 2 capsid) (Adeno-associated virus 2), sequence (P03135 203-735 limits assumed, chain 3 of 3, further chain): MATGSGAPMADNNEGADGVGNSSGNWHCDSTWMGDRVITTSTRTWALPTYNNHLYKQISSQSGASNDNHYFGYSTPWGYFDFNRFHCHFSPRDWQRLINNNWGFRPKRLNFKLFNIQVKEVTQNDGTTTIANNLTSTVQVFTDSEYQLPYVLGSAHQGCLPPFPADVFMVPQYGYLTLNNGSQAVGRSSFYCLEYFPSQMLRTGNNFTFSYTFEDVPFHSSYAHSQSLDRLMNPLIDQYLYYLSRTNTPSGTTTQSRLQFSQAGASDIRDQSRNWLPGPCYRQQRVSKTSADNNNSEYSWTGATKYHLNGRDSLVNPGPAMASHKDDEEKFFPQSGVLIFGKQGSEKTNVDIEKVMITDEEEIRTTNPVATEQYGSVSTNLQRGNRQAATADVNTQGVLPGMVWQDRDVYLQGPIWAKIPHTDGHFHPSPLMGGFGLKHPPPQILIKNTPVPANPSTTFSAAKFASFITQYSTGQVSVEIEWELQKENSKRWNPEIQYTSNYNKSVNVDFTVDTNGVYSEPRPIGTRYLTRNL

As for “AAVR-SBP-His (AAVR PKD domains 1–5 with C-terminal streptavidin binding peptide and 6× His-tag in tandem) (domain or fragment)”, in assay [1], the absorbance at 450 nm, AAVR-SBP-His 50 μg/mL (absorbance (450 nm)) is 0.662; the absorbance at 450 nm, AAVR-SBP-His 100 μg/mL (absorbance (450 nm)) was 0.861; the absorbance at 450 nm, ABTS incubating time 10 min (absorbance (450 nm)) worked out at 0.32; the absorbance at 450 nm, ABTS incubating time 15 min (absorbance (450 nm)) is 0.663. In assay [1], the absorbance at 450 nm, ABTS incubating time 20 min (absorbance (450 nm)) worked out at 0.819; the absorbance at 450 nm, ABTS incubating time 30 min (absorbance (450 nm)) is 1.33; the absorbance at 450 nm, SAV-HRP dilution 1/1000 (absorbance (450 nm)) was found to be 0.872; the absorbance at 450 nm, SAV-HRP dilution 1/2000 (absorbance (450 nm)) is 0.798. For the same molecule, in assay [1], the absorbance at 450 nm, SAV-HRP dilution 1/5000 (absorbance (450 nm)) was 0.662.

As for “Soluble recombinant AAVR (analyte of the BIAcore assay) (domain or fragment)”, in assay [2], the Kd came to 255 nM.

B1: Soluble recombinant AAVR (analyte of the BIAcore assay) (domain or fragment)
chain: SAGESVQITLPKNEVQLNAYVLQEPPKGETYTYDWQLITHPRDYSGEMEGKHSQILKLSKLTPGLYEFKVIVEGQNAHGEGYVNVTVKPEPRKNRPPIAIVSPQFQEISLPTTSTVIDGSQSTDDDKIVQYHWEELKGPLREEKISEDTAILKLSKLVPGNYTFSLTVVDSDGATNSTTANLTVNKAVDYPPVANAGPNQVITLPQNSITLFGNQSTDDHGITSYEWSLSPSSKGKVVEMQGVRTPTLQLSAMQEGDYTYQLTVTDTIGQQATAQVTVIVQPENNKPPQADAGPDKELTLPVDSTTLDGSKSSDDQKIISYLWEKTQGPDGVQLENANSSVATVTGLQVGTYVFTLTVKDERNLQSQSSVNVIVKEEINKPPIAKITGNVVITLPTSTAELDGSKSSDDKGIVSYLWTRDEGSPAAGEVLNHSDHHPILFLSNLVEGTYTFHLKVTDAKGESDTDRTTVEVKPD
For the molecule B1, the koff in assay [3] came to 0.00184 s⁻¹.
